Measurements as given in PMC6258048.
Read-outs that look alike come from different tables or passages of the source.

T1: Tcf3 B-HLH domain (E47);Ascl1 B-HLH domain (;, UniProt P15806-2;Q02067 ;, |)
T1 sequence 1: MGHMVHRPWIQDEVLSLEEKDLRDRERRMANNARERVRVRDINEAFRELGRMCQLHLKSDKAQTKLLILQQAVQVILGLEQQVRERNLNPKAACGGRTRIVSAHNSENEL
T1 sequence 2: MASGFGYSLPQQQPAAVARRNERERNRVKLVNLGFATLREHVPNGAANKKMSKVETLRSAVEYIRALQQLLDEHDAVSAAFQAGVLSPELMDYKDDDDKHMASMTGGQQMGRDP

T2: Tcf3 B-HLH domain (E47) (UniProt P15806-2)
T2 sequence: T1 sequence 1

T3: Ascl1 B-HLH domain (UniProt Q02067)
T3 sequence: T1 sequence 2

B1: weak E-box CGCAA|ATG 28-mer 5caC(a)|5caC(b) (dsDNA)
DNA 1: CTGACCCATACGCAAATGTCTGACTGAC
DNA 2: GTCAGTCAGACATTTGCGTATGGGTCAG
modifications: 5caC at C11 of strand 1 and C17 of strand 2
B2: weak E-box CGCAA|ATG 28-mer C(a)|C(b) (dsDNA)
DNA 1: CTGACCCATACGCAAATGTCTGACTGAC
DNA 2: GTCAGTCAGACATTTGCGTATGGGTCAG
B3: CGCAG|GTG 28-mer 5caC(a)|5caC(b) (dsDNA)
DNA 1: CTGACCGATACGCAGGTGCCTGACTGAC
DNA 2: GTCAGTCAGGCACCTGCGTATCGGTCAG
modifications: 5caC at C11 of strand 1 and C17 of strand 2

Experiments:
Experiment in all cases: EMSA
[1] = target: T1, Tcf3 B-HLH domain (E47);Ascl1 B-HLH …
[2] = target: Tcf4 B-HLH domain;Ascl1 B-HLH domain (;, UniProt Q60722;Q02067 ;, |)
Tcf4 B-HLH domain = Tcf4 B-HLH domain (UniProt Q60722)
[3] = target: T1, Tcf3 B-HLH domain (E47);Ascl1 B-HLH …; remark: listed apart in the source
[4] = target: Tcf12 B-HLH domain;Ascl1 B-HLH domain (;, UniProt Q61286;Q02067 ;, |)
Tcf12 B-HLH domain = Tcf12 B-HLH domain (UniProt Q61286)
Tcf3 B-HLH domain (E47) = target: T2, Tcf3 B-HLH domain (E47)
Ascl1 B-HLH domain = target: T3, Ascl1 B-HLH domain

Binder	binding signal [1]	binding signal [2]	binding signal (Tcf4 B-HLH domain)	binding signal [3]	binding signal [4]	binding signal (Tcf12 B-HLH domain)	binding signal (Tcf3 B-HLH domain (E47))	binding signal (Ascl1 B-HLH domain)
B1	~10 fold binding vs N8							
B2	~100 fold weaker than N1							
B3		~6 fold binding vs N1	~3 fold binding vs N1	~10 fold binding vs N1	~10 fold binding vs N1	~4 fold binding vs N1	~2 fold binding vs N1	~6 fold binding vs N1
